{
  "source": "paper PMC3411106",
  "about": "“Structural analysis of the human SYCE2–TEX12 complex provides molecular insights into synaptonemal complex assembly” (Open Biology, 2012)",
  "molecules": {"B1": {"name": "SYCE2_(57–165), tag cleaved (domain or fragment, human, UniProt Q6PIF2 57-165, looked up)", "chain": "GLYFSSLDSSIDILQKRAQELIENINKSRQKDHALMTNFRNSLKTKVSDLTEKLEERIYQIYNDHNKIIQEKLQEFTQKMAKISHLETELKQVCHSVETVYKDLCLQPE", "notes": "also called central conserved region of SYCE2; source: E. coli Rosetta 2 (DE3), co-expressed with TEX12 constructs, co-purified (Ni–NTA, amylose, TEV cleavage, Resource Q); not shown: MBP, N-terminal, cleaved"}},
  "key": {"[1]": {"target": "His–SYCE2 (1–218) (human) (UniProt Q6PIF2)", "test": "SEC-MALS; 100 µl at 1–5 mg ml^−1 on Superdex 200 10/300 GL; 20 mM Tris pH 8.0, 150 mM KCl, 2 mM DTT; purified complexes or purified fusion proteins"}, "MBP–SYCE2 (1–218) [2]": {"target": "T1, MBP–SYCE2 (1–218) (human, UniProt Q6PIF2 1-218)", "T1 construct": "Tetramer by SEC–MALS; also called full-length SYCE2; source: E. coli Rosetta 2 (DE3); co-expressed (pRSFDuet-1), in clarified lysate for the pull-down; individually expressed, purified on amylose resin for SEC–MALS; not shown: MBP, N-terminal, kept", "T1 sequence (looked up)": "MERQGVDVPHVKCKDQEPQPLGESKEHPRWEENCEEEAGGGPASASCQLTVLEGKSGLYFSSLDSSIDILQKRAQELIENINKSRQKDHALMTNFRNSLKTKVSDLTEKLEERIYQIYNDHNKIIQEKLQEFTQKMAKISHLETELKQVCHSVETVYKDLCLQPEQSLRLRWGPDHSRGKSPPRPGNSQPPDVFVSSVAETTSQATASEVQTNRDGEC", "test": "SEC-MALS; 100 µl at 1–5 mg ml^−1 on Superdex 200 10/300 GL; 20 mM Tris pH 8.0, 150 mM KCl, 2 mM DTT; purified complexes or purified fusion proteins"}, "[3]": {"target": "the molecule itself", "test": "AUC; sedimentation velocity of co-purified, tag-cleaved complexes; SYCE2_(57–165)–TEX12 at 57 µM, SYCE2_(57–165)–TEX12_(49–123) at 289 µM; 20 mM Tris pH 8.0, 145 mM KCl, 2 mM DTT; 30 000 r.p.m., 20°C; c(S) fit"}, "[4]": {"target": "B1", "test": "SDS–PAGE band densitometry of the purified complex; Coomassie-stained SDS–PAGE of the co-purified, tag-cleaved complex; densitometry with IMAGEJ", "conditions": "both partners purified"}, "[5]": {"target": "the molecule itself", "test": "SEC-MALS; 100 µl at 1–5 mg ml^−1 on Superdex 200 10/300 GL; 20 mM Tris pH 8.0, 150 mM KCl, 2 mM DTT; purified complexes or purified fusion proteins"}, "MBP–SYCE2_(57–88)": {"target": "T2, MBP–SYCE2_(57–88) (human, UniProt Q6PIF2 57-88)", "T2 construct": "human SYCE2, residues 57–88 (α1 region); Monomer by SEC–MALS; also called α1 region of SYCE2; source: E. coli Rosetta 2 (DE3); co-expressed (pRSFDuet-1), in clarified lysate for the pull-down; individually expressed, purified on amylose resin for SEC–MALS; not shown: MBP, N-terminal, kept", "T2 chain (looked up)": "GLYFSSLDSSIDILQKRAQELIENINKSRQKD", "test": "pull-down; amylose pull-down after co-expression in bacteria of MBP-fusion SYCE2 constructs (bait) with His-tagged TEX12 or SYCE2 constructs; lysis in 20 mM Tris pH 8.0, 500 mM KCl, 2 mM DTT; 1 h at 4°C; maltose elution; Coomassie-stained SDS–PAGE", "conditions": "partners not purified"}, "MBP–SYCE2 (1–218) [6]": {"target": "T1, MBP–SYCE2 (1–218)", "test": "pull-down; amylose pull-down after co-expression in bacteria of MBP-fusion SYCE2 constructs (bait) with His-tagged TEX12 or SYCE2 constructs; lysis in 20 mM Tris pH 8.0, 500 mM KCl, 2 mM DTT; 1 h at 4°C; maltose elution; Coomassie-stained SDS–PAGE", "conditions": "partners not purified"}},
  "data": [
    {"molecule": "His–SYCE2 (1–218) (from UniProt Q6PIF2 1-218) (natural protein)", "values": [
      {"measurement": "stoichiometry N", "setting": "[1]", "result": 4}
    ]},
    {"molecule": "MBP–SYCE2 (1–218) (from UniProt Q6PIF2 1-218) (natural protein)", "values": [
      {"measurement": "stoichiometry N", "setting": "MBP–SYCE2 (1–218) [2]", "result": 4}
    ]},
    {"molecule": "B1", "values": [
      {"measurement": "binding result", "setting": "[3]", "result": "binds"}
    ]},
    {"molecule": "TEX12_(49–123), tag cleaved (domain or fragment, human, UniProt Q9BXU0 49-123, looked up, not shown: His-tag, N-terminal, cleaved) KDEALEKDLNDVSKEINLMLSTYAKLLSERAAVDASYIDEIDELFKEANAIENFLIQKREFLRQRFTVIANTLHR", "values": [
      {"measurement": "stoichiometry N", "setting": "[4]", "result": 1}
    ]},
    {"molecule": "MBP-TEX12_(49–123) (domain or fragment, human, UniProt Q9BXU0 49-123, looked up, Dimer by SEC–MALS; source: E. coli Rosetta 2 (DE3), individually expressed, purified on amylose resin; not shown: MBP, N-terminal, kept) KDEALEKDLNDVSKEINLMLSTYAKLLSERAAVDASYIDEIDELFKEANAIENFLIQKREFLRQRFTVIANTLHR", "values": [
      {"measurement": "stoichiometry N", "setting": "[5]", "result": 2}
    ]},
    {"molecule": "MBP-TEX12_(24–123) (domain or fragment, human, UniProt Q9BXU0 24-123, looked up, Dimer by SEC–MALS; source: E. coli Rosetta 2 (DE3), individually expressed, purified on amylose resin; not shown: MBP, N-terminal, kept) VPDSPQLSSLGKSDSSFSEISGLFYKDEALEKDLNDVSKEINLMLSTYAKLLSERAAVDASYIDEIDELFKEANAIENFLIQKREFLRQRFTVIANTLHR", "values": [
      {"measurement": "stoichiometry N", "setting": "[5]", "result": 2}
    ]},
    {"molecule": "TEX12 (1–123), tag cleaved (natural protein, human, UniProt Q9BXU0 1-123, looked up, not shown: His-tag, N-terminal, cleaved) MMANHLVKPDNRNCKRPRELESPVPDSPQLSSLGKSDSSFSEISGLFYKDEALEKDLNDVSKEINLMLSTYAKLLSERAAVDASYIDEIDELFKEANAIENFLIQKREFLRQRFTVIANTLHR", "values": [
      {"measurement": "stoichiometry N", "setting": "[4]", "result": 1}
    ]},
    {"molecule": "His–TEX12 (1–123) (natural protein, human, UniProt Q9BXU0 1-123, looked up, source: E. coli Rosetta 2 (DE3), co-expressed (pRSFDuet-1), in clarified lysate; not shown: His-tag, N-terminal, kept) MMANHLVKPDNRNCKRPRELESPVPDSPQLSSLGKSDSSFSEISGLFYKDEALEKDLNDVSKEINLMLSTYAKLLSERAAVDASYIDEIDELFKEANAIENFLIQKREFLRQRFTVIANTLHR", "values": [
      {"measurement": "integrated intensity of the TEX12 band relative to 57–165", "setting": "MBP–SYCE2_(57–88)", "result": 96, "unit": "%"},
      {"measurement": "integrated intensity of the TEX12 band relative to 57–165", "setting": "MBP–SYCE2 (1–218) [6]", "result": 62, "unit": "%"}
    ]},
    {"molecule": "MBP–TEX12_(1–123) (natural protein, human, UniProt Q9BXU0 1-123, looked up, Homodimer by SEC–MALS; source: E. coli Rosetta 2 (DE3), individually expressed, purified on amylose resin; not shown: MBP, N-terminal, kept) MMANHLVKPDNRNCKRPRELESPVPDSPQLSSLGKSDSSFSEISGLFYKDEALEKDLNDVSKEINLMLSTYAKLLSERAAVDASYIDEIDELFKEANAIENFLIQKREFLRQRFTVIANTLHR", "values": [
      {"measurement": "stoichiometry N", "setting": "[5]", "result": 2}
    ]}
  ]
}
